The binders below were run against T1, human immunoglobulin E (hIgE) (human, UniProt P01854-1 1-428) (assay: SPR (Biacore), pH 7.4).
T1 construct: also called human IgE; Native IgE (Abcam)
T1 sequence (P01854 whole entry): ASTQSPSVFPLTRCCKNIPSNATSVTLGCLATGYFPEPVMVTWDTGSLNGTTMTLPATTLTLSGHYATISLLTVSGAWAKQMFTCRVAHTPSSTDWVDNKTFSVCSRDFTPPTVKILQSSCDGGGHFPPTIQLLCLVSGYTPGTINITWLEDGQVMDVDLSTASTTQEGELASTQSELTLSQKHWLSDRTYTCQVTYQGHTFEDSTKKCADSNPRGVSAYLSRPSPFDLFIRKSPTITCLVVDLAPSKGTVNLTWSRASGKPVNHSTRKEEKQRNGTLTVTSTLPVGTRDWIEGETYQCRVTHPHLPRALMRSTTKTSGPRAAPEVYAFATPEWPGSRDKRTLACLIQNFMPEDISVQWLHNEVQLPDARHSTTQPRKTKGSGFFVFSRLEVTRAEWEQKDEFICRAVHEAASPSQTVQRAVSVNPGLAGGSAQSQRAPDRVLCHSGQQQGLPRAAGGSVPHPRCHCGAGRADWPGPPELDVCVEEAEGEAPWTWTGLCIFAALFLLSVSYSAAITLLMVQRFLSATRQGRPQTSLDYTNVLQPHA

Binder	koff [s⁻¹]
OmaVH15G55HW100b - VL3D28HS31H (antibody, V domains shown, human IgG1) VH: EVQLVESGGGLVQPGGSLRLSCAVSGYSITSGHRWEWIRQAPGKGLEWVASIHYDHSTNYNPSVKGRITISRDDSKNTFYLQMNSLRAEDTAVYYCARATHYFGHHHFAVWGQGTLVTVSS VL: DIQLTQSPSSLSASVGDRVTITCRASQSVDYHGDHYMNWYQQKPGKAPKLLIEWGSYLRSGVPSRFSGSGSGTDFTLTISSLQPEDFATYYCQQNAEDPYTFGQGTKVEIK	0.00356

The binders below were run against T1, human immunoglobulin E (hIgE) (assay: competition ELISA, hIgE to hFcεRIα).

Binder	IC50 [nM]
OmaVH15G55HW100b - VL3D28HS31H (antibody, V domains shown, human IgG1) VH: EVQLVESGGGLVQPGGSLRLSCAVSGYSITSGHRWEWIRQAPGKGLEWVASIHYDHSTNYNPSVKGRITISRDDSKNTFYLQMNSLRAEDTAVYYCARATHYFGHHHFAVWGQGTLVTVSS VL: DIQLTQSPSSLSASVGDRVTITCRASQSVDYHGDHYMNWYQQKPGKAPKLLIEWGSYLRSGVPSRFSGSGSGTDFTLTISSLQPEDFATYYCQQNAEDPYTFGQGTKVEIK	9.49

Each binder was assayed against T1, human immunoglobulin E (hIgE) (assay: SPR (Biacore) on hIgE).
Protocol: The ratio of KD measured at pH 5.5 versus KD measured at pH 7.4 was calculated for each of the CL-2C antibodies.

Binder	KD Ratio pH 5.5/pH 7.4
CL-2C mAb 16 (antibody, V domains shown, also called VK50H92D94H + VH58H100BH) VH: QVQLVQSGAEVMKPGSSVKVSCKASGYTFSWYWLEWVRQAPGHGLEWMGEIDPGTFTTHYNEKFKARVTFTADTSTSTAYMELSSLRSEDTAVYYCARFSHFSGSHYDYFDYWGQGTLVTVSS VL: EIVMTQSPATLSVSPGERATLSCRASQSIGTNIHWYQQKPGQAPRLLIYHASESISGIPARFSGSGSGTEFTLTISSLQSEDFAVYYCQQSDSHPTTFGGGTKVEIK	4.7
CL-2C mAb 30 (antibody, V domains shown, also called VK50H + VHWT) VH: QVQLVQSGAEVMKPGSSVKVSCKASGYTFSWYWLEWVRQAPGHGLEWMGEIDPGTFTTNYNEKFKARVTFTADTSTSTAYMELSSLRSEDTAVYYCARFSHFSGSNYDYFDYWGQGTLVTVSS VL: EIVMTQSPATLSVSPGERATLSCRASQSIGTNIHWYQQKPGQAPRLLIYHASESISGIPARFSGSGSGTEFTLTISSLQSEDFAVYYCQQSWSWPTTFGGGTKVEIK	1
CL-2C mAb 34 (antibody, V domains shown, also called VK94H + VH33H100AH) VH: QVQLVQSGAEVMKPGSSVKVSCKASGYTFSWYHLEWVRQAPGHGLEWMGEIDPGTFTTNYNEKFKARVTFTADTSTSTAYMELSSLRSEDTAVYYCARFSHFSGHNYDYFDYWGQGTLVTVSS VL: EIVMTQSPATLSVSPGERATLSCRASQSIGTNIHWYQQKPGQAPRLLIYYASESISGIPARFSGSGSGTEFTLTISSLQSEDFAVYYCQQSWSHPTTFGGGTKVEIK	3
CL-2C mAb 38 (antibody, V domains shown, also called VKWT + VH33H100BH) VH: QVQLVQSGAEVMKPGSSVKVSCKASGYTFSWYHLEWVRQAPGHGLEWMGEIDPGTFTTNYNEKFKARVTFTADTSTSTAYMELSSLRSEDTAVYYCARFSHFSGSHYDYFDYWGQGTLVTVSS VL: EIVMTQSPATLSVSPGERATLSCRASQSIGTNIHWYQQKPGQAPRLLIYYASESISGIPARFSGSGSGTEFTLTISSLQSEDFAVYYCQQSWSWPTTFGGGTKVEIK	6.5
CL-2C mAb 20 (antibody, V domains shown, also called VK50H92D94H + VHWT) VH: QVQLVQSGAEVMKPGSSVKVSCKASGYTFSWYWLEWVRQAPGHGLEWMGEIDPGTFTTNYNEKFKARVTFTADTSTSTAYMELSSLRSEDTAVYYCARFSHFSGSNYDYFDYWGQGTLVTVSS VL: EIVMTQSPATLSVSPGERATLSCRASQSIGTNIHWYQQKPGQAPRLLIYHASESISGIPARFSGSGSGTEFTLTISSLQSEDFAVYYCQQSDSHPTTFGGGTKVEIK	1.1
CL-2C mAb 36 (antibody, V domains shown, also called VKWT + VH58H100BH) VH: QVQLVQSGAEVMKPGSSVKVSCKASGYTFSWYWLEWVRQAPGHGLEWMGEIDPGTFTTHYNEKFKARVTFTADTSTSTAYMELSSLRSEDTAVYYCARFSHFSGSHYDYFDYWGQGTLVTVSS VL: EIVMTQSPATLSVSPGERATLSCRASQSIGTNIHWYQQKPGQAPRLLIYYASESISGIPARFSGSGSGTEFTLTISSLQSEDFAVYYCQQSWSWPTTFGGGTKVEIK	4.3
CL-2C mAb 29 (antibody, V domains shown, also called VK50H + VH33H100AH) VH: QVQLVQSGAEVMKPGSSVKVSCKASGYTFSWYHLEWVRQAPGHGLEWMGEIDPGTFTTNYNEKFKARVTFTADTSTSTAYMELSSLRSEDTAVYYCARFSHFSGHNYDYFDYWGQGTLVTVSS VL: EIVMTQSPATLSVSPGERATLSCRASQSIGTNIHWYQQKPGQAPRLLIYHASESISGIPARFSGSGSGTEFTLTISSLQSEDFAVYYCQQSWSWPTTFGGGTKVEIK	3.8
CL-2C mAb 33 (antibody, V domains shown, also called VK94H + VH33H100BH) VH: QVQLVQSGAEVMKPGSSVKVSCKASGYTFSWYHLEWVRQAPGHGLEWMGEIDPGTFTTNYNEKFKARVTFTADTSTSTAYMELSSLRSEDTAVYYCARFSHFSGSHYDYFDYWGQGTLVTVSS VL: EIVMTQSPATLSVSPGERATLSCRASQSIGTNIHWYQQKPGQAPRLLIYYASESISGIPARFSGSGSGTEFTLTISSLQSEDFAVYYCQQSWSHPTTFGGGTKVEIK	7
CL-2C mAb 28 (antibody, V domains shown, also called VK50H + VH33H100BH) VH: QVQLVQSGAEVMKPGSSVKVSCKASGYTFSWYHLEWVRQAPGHGLEWMGEIDPGTFTTNYNEKFKARVTFTADTSTSTAYMELSSLRSEDTAVYYCARFSHFSGSHYDYFDYWGQGTLVTVSS VL: EIVMTQSPATLSVSPGERATLSCRASQSIGTNIHWYQQKPGQAPRLLIYHASESISGIPARFSGSGSGTEFTLTISSLQSEDFAVYYCQQSWSWPTTFGGGTKVEIK	9
CL-2C mAb 26 (antibody, V domains shown, also called VK50H + VH58H100BH) VH: QVQLVQSGAEVMKPGSSVKVSCKASGYTFSWYWLEWVRQAPGHGLEWMGEIDPGTFTTHYNEKFKARVTFTADTSTSTAYMELSSLRSEDTAVYYCARFSHFSGSHYDYFDYWGQGTLVTVSS VL: EIVMTQSPATLSVSPGERATLSCRASQSIGTNIHWYQQKPGQAPRLLIYHASESISGIPARFSGSGSGTEFTLTISSLQSEDFAVYYCQQSWSWPTTFGGGTKVEIK	8.9
CL-2C mAb 39 (antibody, V domains shown, also called VKWT + VH33H100AH) VH: QVQLVQSGAEVMKPGSSVKVSCKASGYTFSWYHLEWVRQAPGHGLEWMGEIDPGTFTTNYNEKFKARVTFTADTSTSTAYMELSSLRSEDTAVYYCARFSHFSGHNYDYFDYWGQGTLVTVSS VL: EIVMTQSPATLSVSPGERATLSCRASQSIGTNIHWYQQKPGQAPRLLIYYASESISGIPARFSGSGSGTEFTLTISSLQSEDFAVYYCQQSWSWPTTFGGGTKVEIK	4.6
CL-2C mAb 31 (antibody, V domains shown, also called VK94H + VH58H100BH) VH: QVQLVQSGAEVMKPGSSVKVSCKASGYTFSWYWLEWVRQAPGHGLEWMGEIDPGTFTTHYNEKFKARVTFTADTSTSTAYMELSSLRSEDTAVYYCARFSHFSGSHYDYFDYWGQGTLVTVSS VL: EIVMTQSPATLSVSPGERATLSCRASQSIGTNIHWYQQKPGQAPRLLIYYASESISGIPARFSGSGSGTEFTLTISSLQSEDFAVYYCQQSWSHPTTFGGGTKVEIK	5.5
CL-2C mAb 35 (antibody, V domains shown, also called VK94H + VHWT) VH: QVQLVQSGAEVMKPGSSVKVSCKASGYTFSWYWLEWVRQAPGHGLEWMGEIDPGTFTTNYNEKFKARVTFTADTSTSTAYMELSSLRSEDTAVYYCARFSHFSGSNYDYFDYWGQGTLVTVSS VL: EIVMTQSPATLSVSPGERATLSCRASQSIGTNIHWYQQKPGQAPRLLIYYASESISGIPARFSGSGSGTEFTLTISSLQSEDFAVYYCQQSWSHPTTFGGGTKVEIK	0.6
CL-2C mAb 19 (antibody, V domains shown, also called VK50H92D94H + VH33H100AH) VH: QVQLVQSGAEVMKPGSSVKVSCKASGYTFSWYHLEWVRQAPGHGLEWMGEIDPGTFTTNYNEKFKARVTFTADTSTSTAYMELSSLRSEDTAVYYCARFSHFSGHNYDYFDYWGQGTLVTVSS VL: EIVMTQSPATLSVSPGERATLSCRASQSIGTNIHWYQQKPGQAPRLLIYHASESISGIPARFSGSGSGTEFTLTISSLQSEDFAVYYCQQSDSHPTTFGGGTKVEIK	5.2
CL-2C mAb 27 (antibody, V domains shown, also called VK50H + VH33H100CH) VH: QVQLVQSGAEVMKPGSSVKVSCKASGYTFSWYHLEWVRQAPGHGLEWMGEIDPGTFTTNYNEKFKARVTFTADTSTSTAYMELSSLRSEDTAVYYCARFSHFSGSNHDYFDYWGQGTLVTVSS VL: EIVMTQSPATLSVSPGERATLSCRASQSIGTNIHWYQQKPGQAPRLLIYHASESISGIPARFSGSGSGTEFTLTISSLQSEDFAVYYCQQSWSWPTTFGGGTKVEIK	7.4
CL-2C mAb 18 (antibody, V domains shown, also called VK50H92D94H + VH33H100BH) VH: QVQLVQSGAEVMKPGSSVKVSCKASGYTFSWYHLEWVRQAPGHGLEWMGEIDPGTFTTNYNEKFKARVTFTADTSTSTAYMELSSLRSEDTAVYYCARFSHFSGSHYDYFDYWGQGTLVTVSS VL: EIVMTQSPATLSVSPGERATLSCRASQSIGTNIHWYQQKPGQAPRLLIYHASESISGIPARFSGSGSGTEFTLTISSLQSEDFAVYYCQQSDSHPTTFGGGTKVEIK	0.2
CL-2C mAb 32 (antibody, V domains shown, also called VK94H + VH33H100CH) VH: QVQLVQSGAEVMKPGSSVKVSCKASGYTFSWYHLEWVRQAPGHGLEWMGEIDPGTFTTNYNEKFKARVTFTADTSTSTAYMELSSLRSEDTAVYYCARFSHFSGSNHDYFDYWGQGTLVTVSS VL: EIVMTQSPATLSVSPGERATLSCRASQSIGTNIHWYQQKPGQAPRLLIYYASESISGIPARFSGSGSGTEFTLTISSLQSEDFAVYYCQQSWSHPTTFGGGTKVEIK	6.2
CL-2C mAb 40 (antibody, V domains shown, also called VKWT + VHWT) VH: QVQLVQSGAEVMKPGSSVKVSCKASGYTFSWYWLEWVRQAPGHGLEWMGEIDPGTFTTNYNEKFKARVTFTADTSTSTAYMELSSLRSEDTAVYYCARFSHFSGSNYDYFDYWGQGTLVTVSS VL: EIVMTQSPATLSVSPGERATLSCRASQSIGTNIHWYQQKPGQAPRLLIYYASESISGIPARFSGSGSGTEFTLTISSLQSEDFAVYYCQQSWSWPTTFGGGTKVEIK	0.6
CL-2C mAb 17 (antibody, V domains shown, also called VK50H92D94H + VH33H100CH) VH: QVQLVQSGAEVMKPGSSVKVSCKASGYTFSWYHLEWVRQAPGHGLEWMGEIDPGTFTTNYNEKFKARVTFTADTSTSTAYMELSSLRSEDTAVYYCARFSHFSGSNHDYFDYWGQGTLVTVSS VL: EIVMTQSPATLSVSPGERATLSCRASQSIGTNIHWYQQKPGQAPRLLIYHASESISGIPARFSGSGSGTEFTLTISSLQSEDFAVYYCQQSDSHPTTFGGGTKVEIK	7.1

From patent publication US20220177604A1 (ARGENX, published 2022)
